These results are taken from US12679878B2, “CRF2 receptor agonists and their use in therapy” (SANOFI, priority 2020, dated 2026).

Starred links: 1 amine or outer side, 2 acyl side, 3 side chain; linkers in the order of their positions; H or OH if unused. Non-standard residues stand in square brackets, D forms with d. Groups on a side chain read outwards from the residue. No end group written: not given here. *: point of attachment. C18 diacid = O=C(O)CCCCCCCCCCCCCCCCC(=O)*; γGlu = O=C(O)[C@H](CCC(=O)[*:2])N[*:1]; AEEA = NCCOCCOCC(=O)O; Aib = CC(C)(N)C(=O)O

This assay addresses human corticotropin-releasing factor 2α (CRF2 α receptor) (human), Q13324. Kind of assay: cell-based or functional assay.

Sequence of human corticotropin-releasing factor 2α (CRF2 α receptor) (human), Q13324 (Q13324 20-411): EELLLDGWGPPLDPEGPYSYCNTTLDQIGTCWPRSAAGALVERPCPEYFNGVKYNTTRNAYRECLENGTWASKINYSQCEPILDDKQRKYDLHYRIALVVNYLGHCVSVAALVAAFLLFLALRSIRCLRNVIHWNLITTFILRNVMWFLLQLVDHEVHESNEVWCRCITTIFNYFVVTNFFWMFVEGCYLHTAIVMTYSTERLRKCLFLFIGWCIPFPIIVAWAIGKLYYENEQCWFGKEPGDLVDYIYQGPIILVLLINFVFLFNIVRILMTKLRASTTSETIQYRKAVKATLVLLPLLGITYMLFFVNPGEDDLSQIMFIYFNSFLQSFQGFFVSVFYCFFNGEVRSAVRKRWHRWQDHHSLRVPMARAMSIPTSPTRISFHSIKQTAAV

B1: SEQ ID NO: 109 (peptide)
peptide: IVLSLDVPIKLK([AEEA-AEEA-γGlu-C18 diacid])QILLKQERQK[Aib]QREKAETNKQILAQV-NH2
modifications: N-terminus assumed
SMILES: CC[C@H](C)[C@H](N)C(=O)N[C@H](C(=O)N[C@@H](CC(C)C)C(=O)N[C@@H](CO)C(=O)N[C@@H](CC(C)C)C(=O)N[C@@H](CC(=O)O)C(=O)N[C@H](C(=O)N1CCC[C@H]1C(=O)N[C@H](C(=O)N[C@@H](CCCCN)C(=O)N[C@@H](CC(C)C)C(=O)N[C@@H](CCCCNC(=O)COCCOCCNC(=O)COCCOCCNC(=O)CC[C@H](NC(=O)CCCCCCCCCCCCCCCCC(=O)O)C(=O)O)C(=O)N[C@@H](CCC(N)=O)C(=O)N[C@H](C(=O)N[C@@H](CC(C)C)C(=O)N[C@@H](CC(C)C)C(=O)N[C@@H](CCCCN)C(=O)N[C@@H](CCC(N)=O)C(=O)N[C@@H](CCC(=O)O)C(=O)N[C@@H](CCCNC(=N)N)C(=O)N[C@@H](CCC(N)=O)C(=O)N[C@@H](CCCCN)C(=O)NC(C)(C)C(=O)N[C@@H](CCC(N)=O)C(=O)N[C@@H](CCCNC(=N)N)C(=O)N[C@@H](CCC(=O)O)C(=O)N[C@@H](CCCCN)C(=O)N[C@@H](C)C(=O)N[C@@H](CCC(=O)O)C(=O)N[C@H](C(=O)N[C@@H](CC(N)=O)C(=O)N[C@@H](CCCCN)C(=O)N[C@@H](CCC(N)=O)C(=O)N[C@H](C(=O)N[C@@H](CC(C)C)C(=O)N[C@@H](C)C(=O)N[C@@H](CCC(N)=O)C(=O)N[C@H](C(N)=O)C(C)C)[C@@H](C)CC)[C@@H](C)O)[C@@H](C)CC)[C@@H](C)CC)C(C)C)C(C)C
Consider B1, for which the EC50 [nM], 0% HSA was found to be 0.95 nM.

B2: SEQ ID NO: 107 (peptide)
peptide: IVLSLDVPIKLK([AEEA-AEEA-γGlu-C18 diacid])QILLKQERQK[Aib]QREQAETNKQILERV-NH2
modifications: N-terminus assumed
SMILES: CC[C@H](C)[C@H](N)C(=O)N[C@H](C(=O)N[C@@H](CC(C)C)C(=O)N[C@@H](CO)C(=O)N[C@@H](CC(C)C)C(=O)N[C@@H](CC(=O)O)C(=O)N[C@H](C(=O)N1CCC[C@H]1C(=O)N[C@H](C(=O)N[C@@H](CCCCN)C(=O)N[C@@H](CC(C)C)C(=O)N[C@@H](CCCCNC(=O)COCCOCCNC(=O)COCCOCCNC(=O)CC[C@H](NC(=O)CCCCCCCCCCCCCCCCC(=O)O)C(=O)O)C(=O)N[C@@H](CCC(N)=O)C(=O)N[C@H](C(=O)N[C@@H](CC(C)C)C(=O)N[C@@H](CC(C)C)C(=O)N[C@@H](CCCCN)C(=O)N[C@@H](CCC(N)=O)C(=O)N[C@@H](CCC(=O)O)C(=O)N[C@@H](CCCNC(=N)N)C(=O)N[C@@H](CCC(N)=O)C(=O)N[C@@H](CCCCN)C(=O)NC(C)(C)C(=O)N[C@@H](CCC(N)=O)C(=O)N[C@@H](CCCNC(=N)N)C(=O)N[C@@H](CCC(=O)O)C(=O)N[C@@H](CCC(N)=O)C(=O)N[C@@H](C)C(=O)N[C@@H](CCC(=O)O)C(=O)N[C@H](C(=O)N[C@@H](CC(N)=O)C(=O)N[C@@H](CCCCN)C(=O)N[C@@H](CCC(N)=O)C(=O)N[C@H](C(=O)N[C@@H](CC(C)C)C(=O)N[C@@H](CCC(=O)O)C(=O)N[C@@H](CCCNC(=N)N)C(=O)N[C@H](C(N)=O)C(C)C)[C@@H](C)CC)[C@@H](C)O)[C@@H](C)CC)[C@@H](C)CC)C(C)C)C(C)C
Turning to B2, the EC50 [nM], 0% HSA came out at 0.81 nM and the EC50 [nM], 0.1% HSA worked out at 16.1 nM.

B3: SEQ ID NO: 108 (peptide)
peptide: IVLSLDVPIKLK([AEEA-AEEA-γGlu-C18 diacid])QILLKQERQK[Aib]QRQKAETNKQILAQV-NH2
modifications: N-terminus assumed
SMILES: CC[C@H](C)[C@H](N)C(=O)N[C@H](C(=O)N[C@@H](CC(C)C)C(=O)N[C@@H](CO)C(=O)N[C@@H](CC(C)C)C(=O)N[C@@H](CC(=O)O)C(=O)N[C@H](C(=O)N1CCC[C@H]1C(=O)N[C@H](C(=O)N[C@@H](CCCCN)C(=O)N[C@@H](CC(C)C)C(=O)N[C@@H](CCCCNC(=O)COCCOCCNC(=O)COCCOCCNC(=O)CC[C@H](NC(=O)CCCCCCCCCCCCCCCCC(=O)O)C(=O)O)C(=O)N[C@@H](CCC(N)=O)C(=O)N[C@H](C(=O)N[C@@H](CC(C)C)C(=O)N[C@@H](CC(C)C)C(=O)N[C@@H](CCCCN)C(=O)N[C@@H](CCC(N)=O)C(=O)N[C@@H](CCC(=O)O)C(=O)N[C@@H](CCCNC(=N)N)C(=O)N[C@@H](CCC(N)=O)C(=O)N[C@@H](CCCCN)C(=O)NC(C)(C)C(=O)N[C@@H](CCC(N)=O)C(=O)N[C@@H](CCCNC(=N)N)C(=O)N[C@@H](CCC(N)=O)C(=O)N[C@@H](CCCCN)C(=O)N[C@@H](C)C(=O)N[C@@H](CCC(=O)O)C(=O)N[C@H](C(=O)N[C@@H](CC(N)=O)C(=O)N[C@@H](CCCCN)C(=O)N[C@@H](CCC(N)=O)C(=O)N[C@H](C(=O)N[C@@H](CC(C)C)C(=O)N[C@@H](C)C(=O)N[C@@H](CCC(N)=O)C(=O)N[C@H](C(N)=O)C(C)C)[C@@H](C)CC)[C@@H](C)O)[C@@H](C)CC)[C@@H](C)CC)C(C)C)C(C)C
On to B3, for which the EC50 [nM], 0% HSA stood at 0.23 nM.

B4: SEQ ID NO: 105 (peptide)
peptide: IVLSLDVPIKLK([AEEA-AEEA-γGlu-C18 diacid])QILLEQERQK[Aib]QRQQAETNKQILAQV-NH2
modifications: N-terminus assumed
SMILES: CC[C@H](C)[C@H](N)C(=O)N[C@H](C(=O)N[C@@H](CC(C)C)C(=O)N[C@@H](CO)C(=O)N[C@@H](CC(C)C)C(=O)N[C@@H](CC(=O)O)C(=O)N[C@H](C(=O)N1CCC[C@H]1C(=O)N[C@H](C(=O)N[C@@H](CCCCN)C(=O)N[C@@H](CC(C)C)C(=O)N[C@@H](CCCCNC(=O)COCCOCCNC(=O)COCCOCCNC(=O)CC[C@H](NC(=O)CCCCCCCCCCCCCCCCC(=O)O)C(=O)O)C(=O)N[C@@H](CCC(N)=O)C(=O)N[C@H](C(=O)N[C@@H](CC(C)C)C(=O)N[C@@H](CC(C)C)C(=O)N[C@@H](CCC(=O)O)C(=O)N[C@@H](CCC(N)=O)C(=O)N[C@@H](CCC(=O)O)C(=O)N[C@@H](CCCNC(=N)N)C(=O)N[C@@H](CCC(N)=O)C(=O)N[C@@H](CCCCN)C(=O)NC(C)(C)C(=O)N[C@@H](CCC(N)=O)C(=O)N[C@@H](CCCNC(=N)N)C(=O)N[C@@H](CCC(N)=O)C(=O)N[C@@H](CCC(N)=O)C(=O)N[C@@H](C)C(=O)N[C@@H](CCC(=O)O)C(=O)N[C@H](C(=O)N[C@@H](CC(N)=O)C(=O)N[C@@H](CCCCN)C(=O)N[C@@H](CCC(N)=O)C(=O)N[C@H](C(=O)N[C@@H](CC(C)C)C(=O)N[C@@H](C)C(=O)N[C@@H](CCC(N)=O)C(=O)N[C@H](C(N)=O)C(C)C)[C@@H](C)CC)[C@@H](C)O)[C@@H](C)CC)[C@@H](C)CC)C(C)C)C(C)C
On to B4, for which the EC50 [nM], 0% HSA was 0.41 nM and the EC50 [nM], 0.1% HSA is 15.3 nM.

B5: SEQ ID NO: 106 (peptide)
peptide: IVLSLDVPIKLK([AEEA-AEEA-γGlu-C18 diacid])QILLEQERQK[Aib]QREQAETNKQILERV-NH2
modifications: N-terminus assumed
SMILES: CC[C@H](C)[C@H](N)C(=O)N[C@H](C(=O)N[C@@H](CC(C)C)C(=O)N[C@@H](CO)C(=O)N[C@@H](CC(C)C)C(=O)N[C@@H](CC(=O)O)C(=O)N[C@H](C(=O)N1CCC[C@H]1C(=O)N[C@H](C(=O)N[C@@H](CCCCN)C(=O)N[C@@H](CC(C)C)C(=O)N[C@@H](CCCCNC(=O)COCCOCCNC(=O)COCCOCCNC(=O)CC[C@H](NC(=O)CCCCCCCCCCCCCCCCC(=O)O)C(=O)O)C(=O)N[C@@H](CCC(N)=O)C(=O)N[C@H](C(=O)N[C@@H](CC(C)C)C(=O)N[C@@H](CC(C)C)C(=O)N[C@@H](CCC(=O)O)C(=O)N[C@@H](CCC(N)=O)C(=O)N[C@@H](CCC(=O)O)C(=O)N[C@@H](CCCNC(=N)N)C(=O)N[C@@H](CCC(N)=O)C(=O)N[C@@H](CCCCN)C(=O)NC(C)(C)C(=O)N[C@@H](CCC(N)=O)C(=O)N[C@@H](CCCNC(=N)N)C(=O)N[C@@H](CCC(=O)O)C(=O)N[C@@H](CCC(N)=O)C(=O)N[C@@H](C)C(=O)N[C@@H](CCC(=O)O)C(=O)N[C@H](C(=O)N[C@@H](CC(N)=O)C(=O)N[C@@H](CCCCN)C(=O)N[C@@H](CCC(N)=O)C(=O)N[C@H](C(=O)N[C@@H](CC(C)C)C(=O)N[C@@H](CCC(=O)O)C(=O)N[C@@H](CCCNC(=N)N)C(=O)N[C@H](C(N)=O)C(C)C)[C@@H](C)CC)[C@@H](C)O)[C@@H](C)CC)[C@@H](C)CC)C(C)C)C(C)C
B5 registered an EC50 [nM], 0% HSA of 0.53 nM and an EC50 [nM], 0.1% HSA of 13.2 nM.

B6: SEQ ID NO: 104 (peptide)
peptide: IVLSLDVPIKLK([AEEA-AEEA-γGlu-C18 diacid])QILLKQERQK[Aib]QREQAETNKQILAQV-NH2
modifications: N-terminus assumed
SMILES: CC[C@H](C)[C@H](N)C(=O)N[C@H](C(=O)N[C@@H](CC(C)C)C(=O)N[C@@H](CO)C(=O)N[C@@H](CC(C)C)C(=O)N[C@@H](CC(=O)O)C(=O)N[C@H](C(=O)N1CCC[C@H]1C(=O)N[C@H](C(=O)N[C@@H](CCCCN)C(=O)N[C@@H](CC(C)C)C(=O)N[C@@H](CCCCNC(=O)COCCOCCNC(=O)COCCOCCNC(=O)CC[C@H](NC(=O)CCCCCCCCCCCCCCCCC(=O)O)C(=O)O)C(=O)N[C@@H](CCC(N)=O)C(=O)N[C@H](C(=O)N[C@@H](CC(C)C)C(=O)N[C@@H](CC(C)C)C(=O)N[C@@H](CCCCN)C(=O)N[C@@H](CCC(N)=O)C(=O)N[C@@H](CCC(=O)O)C(=O)N[C@@H](CCCNC(=N)N)C(=O)N[C@@H](CCC(N)=O)C(=O)N[C@@H](CCCCN)C(=O)NC(C)(C)C(=O)N[C@@H](CCC(N)=O)C(=O)N[C@@H](CCCNC(=N)N)C(=O)N[C@@H](CCC(=O)O)C(=O)N[C@@H](CCC(N)=O)C(=O)N[C@@H](C)C(=O)N[C@@H](CCC(=O)O)C(=O)N[C@H](C(=O)N[C@@H](CC(N)=O)C(=O)N[C@@H](CCCCN)C(=O)N[C@@H](CCC(N)=O)C(=O)N[C@H](C(=O)N[C@@H](CC(C)C)C(=O)N[C@@H](C)C(=O)N[C@@H](CCC(N)=O)C(=O)N[C@H](C(N)=O)C(C)C)[C@@H](C)CC)[C@@H](C)O)[C@@H](C)CC)[C@@H](C)CC)C(C)C)C(C)C
B6: the EC50 [nM], 0% HSA was determined as 0.32 nM.
